Results from patent publication US20250368745A1 (published 2025).

T1: human IL-18BP (human, UniProt O95998 31-194)
T1 construct: UniProt printed as 095998; also called hIL-18BP
T1 sequence: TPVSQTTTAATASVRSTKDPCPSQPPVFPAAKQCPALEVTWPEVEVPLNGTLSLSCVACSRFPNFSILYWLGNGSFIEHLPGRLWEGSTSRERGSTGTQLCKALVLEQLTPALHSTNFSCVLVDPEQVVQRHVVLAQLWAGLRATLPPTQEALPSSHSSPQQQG

B1: SA301a LC-S93A (antibody, V domains shown)
VH: QVQLQESGPGLVKPSQTLSLTCTVSGYSITSDYNSHWIRQPPGKGLEWIGYIHYSGSTNYNPSLKSRVTISRDTSKNQFSLKLSSVTAADTAVYYCARNYGSIYVNYFDYWGQGTLVTVSS
VL: EIVLTQSPATLSLSPGERATLSCSASSSVSYMYWYQQKPGQAPRPLIYRTSNLASGIPARFSGSGSGTDFTLTISSLEPEDFAVYYCQQYHAYPTFGGGTKVEIK
B2: SA301a LC-Y94F (antibody, V domains shown)
VH: QVQLQESGPGLVKPSQTLSLTCTVSGYSITSDYNSHWIRQPPGKGLEWIGYIHYSGSTNYNPSLKSRVTISRDTSKNQFSLKLSSVTAADTAVYYCARNYGSIYVNYFDYWGQGTLVTVSS
VL: EIVLTQSPATLSLSPGERATLSCSASSSVSYMYWYQQKPGQAPRPLIYRTSNLASGIPARFSGSGSGTDFTLTISSLEPEDFAVYYCQQYHSFPTFGGGTKVEIK
B3: SA301a LC-Y94A (antibody, V domains shown)
VH: QVQLQESGPGLVKPSQTLSLTCTVSGYSITSDYNSHWIRQPPGKGLEWIGYIHYSGSTNYNPSLKSRVTISRDTSKNQFSLKLSSVTAADTAVYYCARNYGSIYVNYFDYWGQGTLVTVSS
VL: EIVLTQSPATLSLSPGERATLSCSASSSVSYMYWYQQKPGQAPRPLIYRTSNLASGIPARFSGSGSGTDFTLTISSLEPEDFAVYYCQQYHSAPTFGGGTKVEIK
B4: SA301a LC-Y94R (antibody, V domains shown)
VH: QVQLQESGPGLVKPSQTLSLTCTVSGYSITSDYNSHWIRQPPGKGLEWIGYIHYSGSTNYNPSLKSRVTISRDTSKNQFSLKLSSVTAADTAVYYCARNYGSIYVNYFDYWGQGTLVTVSS
VL: EIVLTQSPATLSLSPGERATLSCSASSSVSYMYWYQQKPGQAPRPLIYRTSNLASGIPARFSGSGSGTDFTLTISSLEPEDFAVYYCQQYHSRPTFGGGTKVEIK
B5: SA301a LC-Y94G (antibody, V domains shown)
VH: QVQLQESGPGLVKPSQTLSLTCTVSGYSITSDYNSHWIRQPPGKGLEWIGYIHYSGSTNYNPSLKSRVTISRDTSKNQFSLKLSSVTAADTAVYYCARNYGSIYVNYFDYWGQGTLVTVSS
VL: EIVLTQSPATLSLSPGERATLSCSASSSVSYMYWYQQKPGQAPRPLIYRTSNLASGIPARFSGSGSGTDFTLTISSLEPEDFAVYYCQQYHSGPTFGGGTKVEIK
B6: SA301a LC-Y94I (antibody, V domains shown)
VH: QVQLQESGPGLVKPSQTLSLTCTVSGYSITSDYNSHWIRQPPGKGLEWIGYIHYSGSTNYNPSLKSRVTISRDTSKNQFSLKLSSVTAADTAVYYCARNYGSIYVNYFDYWGQGTLVTVSS
VL: EIVLTQSPATLSLSPGERATLSCSASSSVSYMYWYQQKPGQAPRPLIYRTSNLASGIPARFSGSGSGTDFTLTISSLEPEDFAVYYCQQYHSIPTFGGGTKVEIK
B7: SA301a LC-Y94M (antibody, V domains shown)
VH: QVQLQESGPGLVKPSQTLSLTCTVSGYSITSDYNSHWIRQPPGKGLEWIGYIHYSGSTNYNPSLKSRVTISRDTSKNQFSLKLSSVTAADTAVYYCARNYGSIYVNYFDYWGQGTLVTVSS
VL: EIVLTQSPATLSLSPGERATLSCSASSSVSYMYWYQQKPGQAPRPLIYRTSNLASGIPARFSGSGSGTDFTLTISSLEPEDFAVYYCQQYHSMPTFGGGTKVEIK
B8: SA301a LC-Y94L (antibody, V domains shown)
VH: QVQLQESGPGLVKPSQTLSLTCTVSGYSITSDYNSHWIRQPPGKGLEWIGYIHYSGSTNYNPSLKSRVTISRDTSKNQFSLKLSSVTAADTAVYYCARNYGSIYVNYFDYWGQGTLVTVSS
VL: EIVLTQSPATLSLSPGERATLSCSASSSVSYMYWYQQKPGQAPRPLIYRTSNLASGIPARFSGSGSGTDFTLTISSLEPEDFAVYYCQQYHSLPTFGGGTKVEIK
B9: SA301a LC-S93K (antibody, V domains shown)
VH: QVQLQESGPGLVKPSQTLSLTCTVSGYSITSDYNSHWIRQPPGKGLEWIGYIHYSGSTNYNPSLKSRVTISRDTSKNQFSLKLSSVTAADTAVYYCARNYGSIYVNYFDYWGQGTLVTVSS
VL: EIVLTQSPATLSLSPGERATLSCSASSSVSYMYWYQQKPGQAPRPLIYRTSNLASGIPARFSGSGSGTDFTLTISSLEPEDFAVYYCQQYHKYPTFGGGTKVEIK
B10: SA301a LC-P95F (antibody, V domains shown)
VH: QVQLQESGPGLVKPSQTLSLTCTVSGYSITSDYNSHWIRQPPGKGLEWIGYIHYSGSTNYNPSLKSRVTISRDTSKNQFSLKLSSVTAADTAVYYCARNYGSIYVNYFDYWGQGTLVTVSS
VL: EIVLTQSPATLSLSPGERATLSCSASSSVSYMYWYQQKPGQAPRPLIYRTSNLASGIPARFSGSGSGTDFTLTISSLEPEDFAVYYCQQYHSYFTFGGGTKVEIK
B11: SA301a LC-Y94V (antibody, V domains shown)
VH: QVQLQESGPGLVKPSQTLSLTCTVSGYSITSDYNSHWIRQPPGKGLEWIGYIHYSGSTNYNPSLKSRVTISRDTSKNQFSLKLSSVTAADTAVYYCARNYGSIYVNYFDYWGQGTLVTVSS
VL: EIVLTQSPATLSLSPGERATLSCSASSSVSYMYWYQQKPGQAPRPLIYRTSNLASGIPARFSGSGSGTDFTLTISSLEPEDFAVYYCQQYHSVPTFGGGTKVEIK
B12: SA301a LC-S93L (antibody, V domains shown)
VH: QVQLQESGPGLVKPSQTLSLTCTVSGYSITSDYNSHWIRQPPGKGLEWIGYIHYSGSTNYNPSLKSRVTISRDTSKNQFSLKLSSVTAADTAVYYCARNYGSIYVNYFDYWGQGTLVTVSS
VL: EIVLTQSPATLSLSPGERATLSCSASSSVSYMYWYQQKPGQAPRPLIYRTSNLASGIPARFSGSGSGTDFTLTISSLEPEDFAVYYCQQYHLYPTFGGGTKVEIK
B13: SA301a LC-P95L (antibody, V domains shown)
VH: QVQLQESGPGLVKPSQTLSLTCTVSGYSITSDYNSHWIRQPPGKGLEWIGYIHYSGSTNYNPSLKSRVTISRDTSKNQFSLKLSSVTAADTAVYYCARNYGSIYVNYFDYWGQGTLVTVSS
VL: EIVLTQSPATLSLSPGERATLSCSASSSVSYMYWYQQKPGQAPRPLIYRTSNLASGIPARFSGSGSGTDFTLTISSLEPEDFAVYYCQQYHSYLTFGGGTKVEIK
B14: SA301a LC-Y94N (antibody, V domains shown)
VH: QVQLQESGPGLVKPSQTLSLTCTVSGYSITSDYNSHWIRQPPGKGLEWIGYIHYSGSTNYNPSLKSRVTISRDTSKNQFSLKLSSVTAADTAVYYCARNYGSIYVNYFDYWGQGTLVTVSS
VL: EIVLTQSPATLSLSPGERATLSCSASSSVSYMYWYQQKPGQAPRPLIYRTSNLASGIPARFSGSGSGTDFTLTISSLEPEDFAVYYCQQYHSNPTFGGGTKVEIK
B15: SA301a LC-Y94S (antibody, V domains shown)
VH: QVQLQESGPGLVKPSQTLSLTCTVSGYSITSDYNSHWIRQPPGKGLEWIGYIHYSGSTNYNPSLKSRVTISRDTSKNQFSLKLSSVTAADTAVYYCARNYGSIYVNYFDYWGQGTLVTVSS
VL: EIVLTQSPATLSLSPGERATLSCSASSSVSYMYWYQQKPGQAPRPLIYRTSNLASGIPARFSGSGSGTDFTLTISSLEPEDFAVYYCQQYHSSPTFGGGTKVEIK
B16: SA301a LC-P95Y (antibody, V domains shown)
VH: QVQLQESGPGLVKPSQTLSLTCTVSGYSITSDYNSHWIRQPPGKGLEWIGYIHYSGSTNYNPSLKSRVTISRDTSKNQFSLKLSSVTAADTAVYYCARNYGSIYVNYFDYWGQGTLVTVSS
VL: EIVLTQSPATLSLSPGERATLSCSASSSVSYMYWYQQKPGQAPRPLIYRTSNLASGIPARFSGSGSGTDFTLTISSLEPEDFAVYYCQQYHSYYTFGGGTKVEIK

The binders below were run against T1, human IL-18BP (assay: BLI, apparent KD).
For B1, the Kd was 0.52 nM.
B2 showed a Kd of 0.13 nM.
Work on B3 yielded a Kd of 1.15 nM.
Binder B4 has a Kd of 0.29 nM.
Work on B5 yielded a Kd of 0.12 nM.
B6 was tested, and the Kd was 1.27 nM.
Binder B7 has a Kd of 1.93 nM.
Work on B8 yielded a Kd of 0.16 nM.
With B9 the Kd was 0.16 nM.
Work on B10 yielded a Kd of 2.01 nM.
Work on B11 yielded a Kd of 2.35 nM.
B12 gave a Kd of 0.23 nM.
B13 gave a Kd of 2.18 nM.
In the case of B14, the Kd is reported as 0.22 nM.
For B15, the Kd was 0.63 nM.
B16 gave a Kd of 0.82 nM.
